Where two headings read alike, the source gives them in different places. *1 amine or outer side, *2 acyl side, *3 side chain or, on linkers, in order; H or OH if unused. Where no end group is shown, it is not given here. Side-chain parts run from the residue outwards. [ ]: non-standard residue; d: D form. The star is where a group is joined. C18 diacid = O=C(O)CCCCCCCCCCCCCCCCC(=O)*; C16 diacid = O=C(O)CCCCCCCCCCCCCCC(=O)*; γGlu = O=C(O)[C@H](CCC(=O)[*:2])N[*:1]; pGlu = O=C1CC[C@@H](C(=O)O)N1; AEEA = NCCOCCOCC(=O)O
Assays:
Assay in all cases: cell-based or functional assay
human GIP receptor [1] = molecular target: T1, human GIP receptor (human, UniProt P48546 22-466)
T1 sequence (looked up): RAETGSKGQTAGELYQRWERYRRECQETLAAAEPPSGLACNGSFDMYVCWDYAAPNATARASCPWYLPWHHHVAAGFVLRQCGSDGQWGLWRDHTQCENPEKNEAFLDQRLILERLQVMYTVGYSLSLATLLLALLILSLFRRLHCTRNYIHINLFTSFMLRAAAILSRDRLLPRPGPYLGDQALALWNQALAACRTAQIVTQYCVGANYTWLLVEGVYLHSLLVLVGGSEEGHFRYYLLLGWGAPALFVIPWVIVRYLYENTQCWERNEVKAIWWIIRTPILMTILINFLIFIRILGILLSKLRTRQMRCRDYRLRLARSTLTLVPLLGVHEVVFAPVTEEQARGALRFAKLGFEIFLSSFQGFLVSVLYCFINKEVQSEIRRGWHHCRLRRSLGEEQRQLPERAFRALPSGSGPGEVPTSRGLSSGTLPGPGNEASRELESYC

human GIP receptor [2] = molecular target: T1, human GIP receptor; remark: listed apart in the source
GLP1 receptor = GLP1 receptor (UniProt P43220 24-463, limits assumed)
glucagon receptor = glucagon receptor (UniProt P47871 26-477, limits assumed)
human GIP receptor [3] = molecular target: T1, human GIP receptor; remark: listed apart in the source
human GIP receptor [4] = molecular target: T1, human GIP receptor; remark: listed apart in the source

glucagon receptor, sequence (P47871 26-477 limits assumed): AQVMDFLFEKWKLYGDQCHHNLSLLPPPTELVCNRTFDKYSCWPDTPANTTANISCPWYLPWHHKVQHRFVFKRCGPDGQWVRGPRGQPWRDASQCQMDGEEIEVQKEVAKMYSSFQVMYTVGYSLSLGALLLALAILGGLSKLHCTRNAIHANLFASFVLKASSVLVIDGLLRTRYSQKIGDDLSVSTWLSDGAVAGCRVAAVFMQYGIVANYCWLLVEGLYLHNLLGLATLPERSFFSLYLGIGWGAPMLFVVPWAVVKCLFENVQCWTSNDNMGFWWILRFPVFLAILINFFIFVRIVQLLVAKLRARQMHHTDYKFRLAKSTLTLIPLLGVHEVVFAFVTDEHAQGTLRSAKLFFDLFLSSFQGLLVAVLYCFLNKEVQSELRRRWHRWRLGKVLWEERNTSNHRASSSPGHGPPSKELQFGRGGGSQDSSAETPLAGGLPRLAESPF

Binder | CisBio cAMP agonism % Efficacy (human GIP receptor [1]) | CisBio cAMP antagonism % inhib (human GIP receptor [1]) | CisBio cAMP antagonism IC50 (human GIP receptor [1]) | CisBio cAMP antagonism pIC50 (human GIP receptor [1]) | DiscoveRx cAMP antagonism IC50 (human GIP receptor [1]) | DiscoveRx cAMP antagonism log IC50 (human GIP receptor [1]) | CisBio cAMP antagonism % inhib (human GIP receptor [2]) | CisBio cAMP antagonism IC50 (human GIP receptor [2]) | cAMP antagonism IC50 (human GIP receptor [2]) | cAMP antagonism % inhib (GLP1 receptor) | cAMP antagonism IC50 (GLP1 receptor) | cAMP antagonism index (GLP1 receptor) | cAMP antagonism log IC50 (GLP1 receptor) | cAMP antagonism IC50 (finer than Table 1B) (human GIP receptor [3]) | DiscoveRx cAMP antagonism % inhib (human GIP receptor [1]) | cAMP antagonism % inhib (human GIP receptor [2]) | further results
GGTFISDYSIAMDRIK(C16 diacid)QQDFVNWLLAQR-OH (N-terminus assumed; SMILES CC[C@H](C)[C@H](NC(=O)[C@H](CO)NC(=O)[C@H](Cc1ccc(O)cc1)NC(=O)[C@H](CC(=O)O)NC(=O)[C@H](CO)NC(=O)[C@@H](NC(=O)[C@H](Cc1ccccc1)NC(=O)[C@@H](NC(=O)CNC(=O)CN)[C@@H](C)O)[C@@H](C)CC)C(=O)N[C@@H](C)C(=O)N[C@@H](CCSC)C(=O)N[C@@H](CC(=O)O)C(=O)N[C@@H](CCCNC(=N)N)C(=O)N[C@H](C(=O)N[C@@H](CCCCNC(=O)CCCCCCCCCCCCCCC(=O)O)C(=O)N[C@@H](CCC(N)=O)C(=O)N[C@@H](CCC(N)=O)C(=O)N[C@@H](CC(=O)O)C(=O)N[C@@H](Cc1ccccc1)C(=O)N[C@H](C(=O)N[C@@H](CC(N)=O)C(=O)N[C@@H](Cc1c[nH]c2ccccc12)C(=O)N[C@@H](CC(C)C)C(=O)N[C@@H](CC(C)C)C(=O)N[C@@H](C)C(=O)N[C@@H](CCC(N)=O)C(=O)N[C@@H](CCCNC(=N)N)C(=O)O)C(C)C)[C@@H](C)CC) [AT257] | 5% | 80% | 136 nM | 6.9 | 21 nM | -7.7 log M | 80% | 136 nM | 21 nM | 55% | 5390 nM | 256 | -5.3 log M | – | – | – | DiscoveRx cAMP agonism Emax (human GIP receptor [1]): 4; cAMP antagonism % inhib (glucagon receptor): 100%; cAMP antagonism IC50 (glucagon receptor): 15 nM; cAMP antagonism index (glucagon receptor): 1
[pGlu]GTFISDYSIAMDRIK([AEEA-AEEA-AEEA-γGlu-C16 diacid])QQDFVNWLLAQR-NH2 [AT380] | 8% | 82% | 85.8 nM | 7.1 | 7 nM | -8.1 log M | – | – | – | – | – | – | – | 7.3 nM | 100% | – | –
FISDYSIAMDKIK(C16 diacid)QQDFVNWLLAQK-NH2 (N-terminus assumed; SMILES CC[C@H](C)[C@H](NC(=O)[C@H](CO)NC(=O)[C@H](Cc1ccc(O)cc1)NC(=O)[C@H](CC(=O)O)NC(=O)[C@H](CO)NC(=O)[C@@H](NC(=O)[C@@H](N)Cc1ccccc1)[C@@H](C)CC)C(=O)N[C@@H](C)C(=O)N[C@@H](CCSC)C(=O)N[C@@H](CC(=O)O)C(=O)N[C@@H](CCCCN)C(=O)N[C@H](C(=O)N[C@@H](CCCCNC(=O)CCCCCCCCCCCCCCC(=O)O)C(=O)N[C@@H](CCC(N)=O)C(=O)N[C@@H](CCC(N)=O)C(=O)N[C@@H](CC(=O)O)C(=O)N[C@@H](Cc1ccccc1)C(=O)N[C@H](C(=O)N[C@@H](CC(N)=O)C(=O)N[C@@H](Cc1c[nH]c2ccccc12)C(=O)N[C@@H](CC(C)C)C(=O)N[C@@H](CC(C)C)C(=O)N[C@@H](C)C(=O)N[C@@H](CCC(N)=O)C(=O)N[C@@H](CCCCN)C(N)=O)C(C)C)[C@@H](C)CC) [AT353] | 0% | 90% | 25.1 nM | 7.6 | – | – | 90% | 25.1 nM | 9 nM | 43% | 169 nM | 44 | -6.8 log M | – | – | 100% | cAMP antagonism % inhib (human GIP receptor [4]): 100%; cAMP antagonism IC50 (human GIP receptor [4]): 9 nM; cAMP antagonism log IC50 (human GIP receptor [4]): -8.1 log M
SGTFISDYSIAMDRIK(C16 diacid)QQDFVNWLLAQR-NH2 (N-terminus assumed; SMILES CC[C@H](C)[C@H](NC(=O)[C@H](CO)NC(=O)[C@H](Cc1ccc(O)cc1)NC(=O)[C@H](CC(=O)O)NC(=O)[C@H](CO)NC(=O)[C@@H](NC(=O)[C@H](Cc1ccccc1)NC(=O)[C@@H](NC(=O)CNC(=O)[C@@H](N)CO)[C@@H](C)O)[C@@H](C)CC)C(=O)N[C@@H](C)C(=O)N[C@@H](CCSC)C(=O)N[C@@H](CC(=O)O)C(=O)N[C@@H](CCCNC(=N)N)C(=O)N[C@H](C(=O)N[C@@H](CCCCNC(=O)CCCCCCCCCCCCCCC(=O)O)C(=O)N[C@@H](CCC(N)=O)C(=O)N[C@@H](CCC(N)=O)C(=O)N[C@@H](CC(=O)O)C(=O)N[C@@H](Cc1ccccc1)C(=O)N[C@H](C(=O)N[C@@H](CC(N)=O)C(=O)N[C@@H](Cc1c[nH]c2ccccc12)C(=O)N[C@@H](CC(C)C)C(=O)N[C@@H](CC(C)C)C(=O)N[C@@H](C)C(=O)N[C@@H](CCC(N)=O)C(=O)N[C@@H](CCCNC(=N)N)C(N)=O)C(C)C)[C@@H](C)CC) [AT392] | – | – | – | 7.2 | – | -9.2 log M | 96% | 68.1 nM | 1 nM | – | – | – | – | 0.6 nM | – | 93% | –
[pGlu]GTFISDYSIAMDRIK([AEEA-AEEA-AEEA-γGlu-C18 diacid])QQDFVNWLLAQR-NH2 [AT382] | 0% | 83% | 25.1 nM | 7.6 | 2 nM | -8.7 log M | 83% | 25.1 nM | 2 nM | – | – | – | – | 1.8 nM | 100% | 100% | –
[pGlu]GTFISDYSIAMDRIK(C16 diacid)QQDFVNWLLAQR-NH2 [AT390] | 4% | 81% | 15.9 nM | 7.8 | 1 nM | -9.1 log M | – | – | – | – | – | – | – | 0.8 nM | 100% | – | –

— patent publication US20220025010A1 (ANTAG THERAPEUTICS, published 2022)
